What was measured:
[1] = test system: MHV68UNG (murine gammaherpesvirus 68); test: fluorescence anisotropy; conditions: N15 of strand 1 = abasic (AP) site made from U by UNG; G opposite
[2] = test system: MHV68UNGΔN-Ls (murine gammaherpesvirus 68 / mouse chimera); test: fluorescence anisotropy; conditions: N15 of strand 1 = abasic (AP) site made from U by UNG; G opposite

AGAAAAGGGGAAAGNAAAGAGGAAAGGTGAGGAGGT / ACCTCCTCACCTTTCCTCTTTGCTTTCCCCTTTTCT [AP:G dsDNA (fluorescein)]
Kd [1]: 680 nM
Kd [2]: 751 nM

Source: article PMC10441670
